Laboratory results as given in the DeepSol protein solubility set.

assay: soluble on expression in E. coli; label from the status in PepcDB or PDB records

| Sequence | soluble on expression in E. coli |
| --- | --- |
| MNEDLTNSTEYKRYGHDYAKYPRRIAEELQHYGGNSFANFFRDEGVLYKEILCDACDHLKVNYNEESATSLIEQNMLSKLLKDSLEKMSRREIKELCNELGMTNIDKVIGENKQVLIASTLTLFKAGGSHSYALAVSVADAMVRQTLGHVMWWVK | not soluble |
| MNELFLSELKSADKDLLQKLVLIEEHVFADSAQEPVQTEASLDSLELIISQCIAIISEIESPLEKAEALLNELYFQHLFIDRYQTRWPISAYSVAKGLNQRAMSPVVKAALVKEIITACGFETDLVFIPNKIMVRLCCDEQYAIIFDAITGESLDWTELDVRLDELDGDPGEQELKAIDDSVALVEHLSALKNVLIHEQAFDKALTCVDVILSLNPDDPLQRRDRGFLLHQLDCFKVAVDDYRYFVEQCPKDPAAKILKIQLEKIDVGNNVLHLEHHHHHH | soluble |
| MNEMPVQPTPAPPVDAPSPDGDRDLFGWRVRADLPLPELPVWAGDGRAPDILIRVAAVSPLDDGAQVFSPRIRFIEATLCFDVPDVARYRVDGGHLVTIEAARGIAADAPEIRLFFFGTVLAVLCFRRGLIPLHASAVALDGRALLLSGESGTGKSTLAAALLARGYPLLSDDLCALDVSCPDKPMILPCTAHLKLWGDAAARLGIATDGMTPVRRHLDKFRIPVRSASDAPLGPGTIIRLKRVTRAEQVGTRPLLGAEALCYDLIHRFRLGIALGYQSTMLTALAPLVRSAPIIQLNRRDDLGALPDLADHVIRLARDERRDLEHHHHHH | not soluble |
| MNESERKIVEEFQKETGINFKNEELLFRALCHSSYANEQNQAGRKDVESNEKLEFLGDAVLELFVCEILYKKYPEAEVGDLARVKSAAASEEVLAMVSRKMNLGKFLFLGKGEEKTGGRDRDSILADAFEALLAAIYLDQGYEKIKELFEQEFEFYIEKIMK | not soluble |
| MNESRITRNNEAVYKPEELDILRLGLDTDLYPNVDWMDMLLKDGAWSNRINLNMSGGGTTARYFVSASYVKEDGMYNTDESLKDDYNTNAAYHRWNYRLNTDIDITKTTLLKVGVAGFLSKRNSPGLGDGDVWGELFGYNPIKTPVMYSNGYIPAIGSGNKTNPWVAATQTGFNENWTNNIETNISLEQNFDFITKGLKFVGRFGYDSNNQNTIRRLKWPEQWLAERARDPETGELRWKKISGSQNMKQESSSSGNRREFLDMMLNWDRSFGAHHPSATIKYTQDSYIQTQNLGEDLKTGINKRNQDLAGRVAYNWNYRYFIDFNFGYNGSENFAKGDRFGFFPAFSLAWNIAEEPFIKKHLKWMNMFKVRFSYGKVGNDNVGTRFPYLYTIADRYKNGDNEIIYGGYDWAQYPSSYSFGGLGFADVASNGITWEVAEKNDLGIDLALFNDKFTATIDYFDEKRTGIYMVRNYLPQIVGLNGHNPAANVGAVSSKGFDGHFSYKQRINDVNLTVRGNITYSKNEVLERDEENNVYAYQMQRGYRVDQCKGLIAEGLFKDYDDIRNSPTQSWGKVQPGDIKYRDVNGDGVINDGDQVAIGATSRPNLIYGLGASASWKGLDVNVHFQGAGKSTFFTYGKCVWAFTEGEWGNIFKGMLDNRWVDADTAETLGIPANENPNASYPRLSYQGDNASNNNYRNSTFWLKNGRYLRLKTIDVGYTLPKSIVNKMHFNNIRIFLVGTNLLTWSSFKTWDPEMGDPRGESYPLTKSITMGISVNL | not soluble |
| MNFGAYGKITDVEFVSDSEGPLHFCIITFADSRSVDVLLTKSIYIRDVLMFTRRAVLKESVKIAEHKIKEQEQQNLVQLPPNHTAYLTPSRPVTSVHASSSASSNHYDPSAAAGYAPLYHQPPESDPLSQCGYGPRKW | not soluble |
| MNFLEASWEEREVTAYKAILGDTGLGIFPLSHELFKRMSASGINPRWLTHGVFKSPPNGNRSTWAYITSGMSNPWETNEPEEHSGLGVEFIIETEKEETWAVEVLQMLMAYNLLLAAGQMGDFPLLGDGDRVPLALSDAIRTMMFTQPVSFPHCFSLKSGRVDLLQVVGITPAELQVAKQTSSDKIRTQLISKLGSLVTSKERESVVLEHHHHHH | not soluble |
| MNGNRAQPMNMPNEPHPKLKLEQYLGIQIKRQRQAQELKLADVARIAGISQGMLSKIENAQVSTSLDNLSRLCDVLGMPMSKLFSQYDQQGSSALLVRADEGLEVVRRGTEKGHTYHLLNHTRGPKKSFEAYMVTMDDASEEFPTFSHPGTEFLHLLEGELIYRHGNQLYPMQAGDSLTFDGDIPHGPEQLVQVPIKLLSIMNYGAQGD | not soluble |
| MNGVEGNNELSLANTTTPSHASEDLDLKQDQGLQEETDTVREMEAAGEAGADGGASPDSEHCGPELCFRVAENSCAAAARGLEDAPSPSKGGDAPSAPVAADDSSKNGCQLEGPHSPAKPKALEACGAVGLGSQQMPGPKKTKEMTTTKCAISVATGKEGEAGAAMQEKKGLQKEKKVAGGGKEETRPRAPKINCMDSLEAIDQELSNVNAQADRAFLQLERKFGRMRRLHMQRRSFIIQNIPGFWVTAFRNHPQLSPMISGQDEDMMRYMINLEVEELKQPRVGCKFKFIFQSNPYFRNEGLVKEYERRSSGRVVSLSTPIRWHRGQEPQAHIHRNREGNTIPSFFNWFSDHSLLEFDRIAEIIKGELWSNPLQYYLMGDGPRRGVRVPPRQPVESPRSFRFQSG | soluble |
| MNHKVHHHHHHIDGRHHHHHHHIDGRHMQVSVETTQGLGRRVTITIAADSIETAVKSELVNVAKKVRIDGFRKGKVPMNIVAQRYGASVRQDVLGDLMSRNFIDAIIKEKINPAGAPTYVPGEYKLGEDFTYSVEFEVYPEVELQGLEAIEVEKPIVEVTDADVDGMLDTLRKQQATWKEKDGAVEAEDRVTIDFTGSVDGEEFEGGKASDFVLAMGQGRMIPGFEDGIKGHKAGEEFTIDVTFPEEYHAENLKGKAAKFAINLKKVEERELPELTAEFIKRFGVEDGSVEGLRAEVRKNMERELKSAIRNRVKSQAIEGLVKANDIDVPAALIDSEIDVLRRQAAQRFGGNEKQALELPRELFEEQAKRRVVVGLLLGEVIRTNELKADEERVKGLIEEMASAYEDPKEVIEFYSKNKELMDNMRNVALEEQAVEAVLAKAKVTEKETTFNELMNQQA | soluble |
| MNHSRTIPVVNIAGPGSQPEEEDFNFLPIPAGINLPLTPVLPEQALPAELRVARHILTTLIRDMDNPVATLPFPLSYKLNATEQQNSGLLDQLLGEGEISARVLLSDGKEQRIQETVFTGVWRVREYNADQQRVADEIIIGPIPESIWQTHPQPPITPELPPQPAGLMNGAFIAHEIAERVKQPVKEPHIINLTLLPVNDADREYLDHFLGEGCSAIFSRGYGKCRIVSTHFPGVWRVNYFNDMNTLLQDMIEIADIPDIAVAGIDDIEDAYAGLKNTLEWLKEYPVTENEPVVRMECKVCWWVYDPALGDDVWQIPPGVPFNQLPDYWCCPVCETSKSGFMVIDEGNSSCKD | not soluble |
| MNIDAVVEFTKKHLKDEKTGHDFYHGQRVANLASKMYLEDHPDAHADSRMVAIIKSGGYLHDTIDEKVCDNPDKVIAEIKELLPEVGFTDLEVWDILFTIQHMSFSANIEHHYHLPLSGQYVQDADRLESLGAMGIARAFTYGGKHGNKIYDPEIKPEKLVSHDQYRNHVETTINHFYEKLFHLADTMNTPAMKKEANRRTEYMHNFVQEFMNEWNVLEHHHHHH | soluble |
| MNIQLSPLEARVIGCLIEKEVTTPDHYPLTLNSLTTACNQKSNREPVLNLSEAEVQDTVEGLIARRLVSDESSFNSRTSKYQHRFCNTEFGDLKLNQQELGLICCLLLRGAQTPGELRTRTNRLCTFTDVKETEAVLERLANRDSGALVVKLPREPGKRESRYHHLFCGEVDMAA | soluble |
| MNIRNARPEDLMNMQHCNLLCLPENYQMKYYFYHGLSWPQLSYIAEDENGKIVGYVLAKMEEDPDDVPHGHITSLAVKRSHRRLGLAQKLMDQASRAMIENFNAKYVSLHVRKRSVKWSPNTMQMGRTPMP | not soluble |
| MNISLSRVHFPVTTLGPGQRLGLWFQGCSIRCAGCISADTWGPGKHPLPLAQVLDDLQPWLARAEGITLSGGEPFDQPEALLALLRGLRERTGVDILVYSGHSLETLQPLLQQAEGLLDALICDPFEQQQAQTLVLRGSDNQRLIFLTELGRQRLSTYQRPLHHEDRALDVMFDDDGSVWMAGIPRRDDVLRLRDLLHDQGHQLQISAHTSRRRLEHHHHHH | not soluble |
| MNKEEQVMMSLRELFNKMAWLNKLKMEDSLKGYKPSEVHYIECIGKNVDSNVTKLAKSLYMTRGAISKMTKKLIEKNIVESYQKADNKKEIYFRLTEKGHEIYKLHENLHKEFQERDKVVFEQVTDEQFESMLSFIEKYSKHLDSEIKKLGIDTKLE | not soluble |
